Reference: article PMC3373496, “An Evolutionarily Conserved Enhancer Regulates Bmp4 Expression in Developing Incisor and Limb Bud”

B1: MutPitxBSCONS3 (dsDNA)
DNA 1: AGTTCCCTACAACGCATTTACCGTG
DNA 2: CACGGTAAATGCGTTGTAGGGAACT
B2: WTMsxBSCONS3 (dsDNA)
DNA 1: GACCCTATGTAATTGCATTCCTGAA
DNA 2: TTCAGGAATGCAATTACATAGGGTC
B3: WTPitxBSCONS3 (dsDNA)
DNA 1: AGTTCCCTACATAATCCTTACCGTG
DNA 2: CACGGTAAGGATTATGTAGGGAACT
B4: Bicoid (dsDNA)
DNA 1: TCATGCCTGTAATCCCAGCACTCAG
DNA 2: CTGAGTGCTGGGATTACAGGCATGA
B5: MutMsxBSCONS3 (dsDNA)
DNA 1: GACCCTATCCGGCCTCATTCCTGAA
DNA 2: TTCAGGAATGAGGCCGGATAGGGTC

How the values were obtained:
[1] = biological target: GST-Pitx1 (UniProt P70314 1-315); experiment: EMSA; 1X phosphate buffer, 10% glycerol, 0.1 ug/ul DNaseI-digested poly[dG-dC], 20 ul, on ice 10 min + 20 min with probe; 6% native PAGE, 1x TBE, 4 C; conditions: protein: recombinant; tags: N-terminal GST (pGEX3X); label: 32P 5' end (PNK) when probe; blunt
[2] = biological target: GST-Msx2 (UniProt Q03358 1-267); experiment: EMSA; 1X phosphate buffer, 10% glycerol, 0.3 mg/ul BSA, 0.1 ug/ul DNaseI-digested poly[dG-dC], 20 ul, on ice 10 min + 20 min with probe; 6% native PAGE, 1x TBE, 4 C; conditions: protein: recombinant; tags: N-terminal GST (pGEX3X); label: 32P 5' end (PNK) when probe; blunt
Sequence of GST-Msx2 (Q03358 whole entry): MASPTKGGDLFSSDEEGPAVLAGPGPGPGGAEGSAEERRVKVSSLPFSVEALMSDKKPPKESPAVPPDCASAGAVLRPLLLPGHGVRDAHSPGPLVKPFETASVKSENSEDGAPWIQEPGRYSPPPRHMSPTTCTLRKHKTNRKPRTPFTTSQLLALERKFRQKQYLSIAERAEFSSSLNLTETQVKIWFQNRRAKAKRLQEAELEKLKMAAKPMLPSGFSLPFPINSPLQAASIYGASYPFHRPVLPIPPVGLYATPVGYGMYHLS

| Binder | binding result [1] | binding result [2] |
| --- | --- | --- |
| B1 | no binding | – |
| B2 | – | binds |
| B3 | binds | – |
| B4 | binds | – |
| B5 | – | no binding |
